Laboratory results from publication PMC10786891, “Massively parallel profiling of RNA-targeting CRISPR-Cas13d”.

T1: EsCas13d, nuclease-dead (Eubacterium siraeum, UniProt B0MS50, R295A;H300A;R849A;H854A)
T1 sequence: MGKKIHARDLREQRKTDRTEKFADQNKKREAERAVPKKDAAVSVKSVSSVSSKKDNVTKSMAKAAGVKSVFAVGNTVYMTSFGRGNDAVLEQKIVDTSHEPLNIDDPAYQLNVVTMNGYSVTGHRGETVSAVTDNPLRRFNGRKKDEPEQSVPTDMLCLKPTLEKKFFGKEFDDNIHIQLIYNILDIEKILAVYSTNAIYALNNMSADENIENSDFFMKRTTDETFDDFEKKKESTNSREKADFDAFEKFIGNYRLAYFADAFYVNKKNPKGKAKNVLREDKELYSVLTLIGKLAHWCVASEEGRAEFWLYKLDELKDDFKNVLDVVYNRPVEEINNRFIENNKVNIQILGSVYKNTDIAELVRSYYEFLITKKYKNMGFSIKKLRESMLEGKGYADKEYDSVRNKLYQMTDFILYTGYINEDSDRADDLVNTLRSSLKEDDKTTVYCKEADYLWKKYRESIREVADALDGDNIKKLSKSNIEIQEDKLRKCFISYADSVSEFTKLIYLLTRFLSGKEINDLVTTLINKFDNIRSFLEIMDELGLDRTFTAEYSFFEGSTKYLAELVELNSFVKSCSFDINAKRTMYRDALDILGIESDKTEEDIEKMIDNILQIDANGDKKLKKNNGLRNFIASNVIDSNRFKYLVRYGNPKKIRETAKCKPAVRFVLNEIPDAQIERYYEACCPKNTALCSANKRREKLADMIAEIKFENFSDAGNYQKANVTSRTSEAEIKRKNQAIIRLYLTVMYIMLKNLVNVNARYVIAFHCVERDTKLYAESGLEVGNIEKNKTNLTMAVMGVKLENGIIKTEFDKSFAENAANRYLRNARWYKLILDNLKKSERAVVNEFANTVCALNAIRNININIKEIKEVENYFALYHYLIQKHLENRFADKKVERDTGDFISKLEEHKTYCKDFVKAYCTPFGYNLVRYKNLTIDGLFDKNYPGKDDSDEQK


Target: T1, EsCas13d, nuclease-dead
Assay: crRNA (strand 1, pre-loaded); Mg2+; 40 mM Tris-HCl pH 7.5, 150 mM NaCl, 6 mM MgCl2, 1 mM DTT, 0.1% Tween-20, 0.2 mg/ml BSA; 25 C; 10 min per concentration, then washed
Settings: tags: His6-TwinStrep-SUMO cleaved; N-terminal SNAP kept (SNAP-Surface 488); label: 3' end held by stalled T7 RNA polymerase

Binder | Kd
target 1 C6G,G15C (mixed) RNA 1: CACCCGUGCAAAAAUGCAGGGGUCUAAAACUGAGCGGAUAACCUCUCUAUGG RNA 2: GGGAAUGGAUCCACAUCUACGAAUUCGUACCAUAGACAGGUUAUCGGCUCACCGAGAUCGGAAGAGCACACGU | 47 ± 10 nM
target 1 C6U,A14U (mixed) RNA 1: CACCCGUGCAAAAAUGCAGGGGUCUAAAACUGAGCGGAUAACCUCUCUAUGG RNA 2: GGGAAUGGAUCCACAUCUACGAAUUCGUACCAUAGAGUGGUUAUCUGCUCACCGAGAUCGGAAGAGCACACGU | 58 ± 20 nM
target 1 G5U,C6G (mixed) RNA 1: CACCCGUGCAAAAAUGCAGGGGUCUAAAACUGAGCGGAUAACCUCUCUAUGG RNA 2: GGGAAUGGAUCCACAUCUACGAAUUCGUACCAUAGAGAGGUUAUCGUCUCACCGAGAUCGGAAGAGCACACGU | 9.5 ± 0.32 nM
target 2 MT 5'PFS GCC 3'PFS ACA (mixed) RNA 1: CACCCGUGCAAAAUUGCAGGGGUCUAAAACCUUCUCCAAAUUGUUUCAUCCU RNA 2: GGGAAUGGAUCCACAUCUACGAAUUCGCCAGGAUGAAACAAUUUGGAGAAGACAAGAUCGGAAGAGCACACGU | 10.8 ± 1.1 nM
target 2 MT 5'PFS UAC 3'PFS CGA (mixed) RNA 1: CACCCGUGCAAAAUUGCAGGGGUCUAAAACCUUCUCCAAAUUGUUUCAUCCU RNA 2: GGGAAUGGAUCCACAUCUACGAAUUCUACAGGAUGAAACAAUUUGGAGAAGCGAAGAUCGGAAGAGCACACGU | 6 ± 1.9 nM
target 2 MT 5'PFS GUC 3'PFS CGG (mixed) RNA 1: CACCCGUGCAAAAUUGCAGGGGUCUAAAACCUUCUCCAAAUUGUUUCAUCCU RNA 2: GGGAAUGGAUCCACAUCUACGAAUUCGUCAGGAUGAAACAAUUUGGAGAAGCGGAGAUCGGAAGAGCACACGU | 18.3 ± 2.1 nM
target 2 MT 5'PFS CUG 3'PFS UCA (mixed) RNA 1: CACCCGUGCAAAAUUGCAGGGGUCUAAAACCUUCUCCAAAUUGUUUCAUCCU RNA 2: GGGAAUGGAUCCACAUCUACGAAUUCCUGAGGAUGAAACAAUUUGGAGAAGUCAAGAUCGGAAGAGCACACGU | 5 ± 0.6 nM
target 2 MT 5'PFS GCC 3'PFS ACG (mixed) RNA 1: CACCCGUGCAAAAUUGCAGGGGUCUAAAACCUUCUCCAAAUUGUUUCAUCCU RNA 2: GGGAAUGGAUCCACAUCUACGAAUUCGCCAGGAUGAAACAAUUUGGAGAAGACGAGAUCGGAAGAGCACACGU | 12.2 ± 1.4 nM
target 2 MT 5'PFS CGA 3'PFS AAA (mixed) RNA 1: CACCCGUGCAAAAUUGCAGGGGUCUAAAACCUUCUCCAAAUUGUUUCAUCCU RNA 2: GGGAAUGGAUCCACAUCUACGAAUUCCGAAGGAUGAAACAAUUUGGAGAAGAAAAGAUCGGAAGAGCACACGU | 13 ± 5 nM
target 2 MT 5'PFS AUA 3'PFS CAG (mixed) RNA 1: CACCCGUGCAAAAUUGCAGGGGUCUAAAACCUUCUCCAAAUUGUUUCAUCCU RNA 2: GGGAAUGGAUCCACAUCUACGAAUUCAUAAGGAUGAAACAAUUUGGAGAAGCAGAGAUCGGAAGAGCACACGU | 8.4 ± 2.6 nM
target 2 MT 5'PFS GUC 3'PFS CGU (mixed) RNA 1: CACCCGUGCAAAAUUGCAGGGGUCUAAAACCUUCUCCAAAUUGUUUCAUCCU RNA 2: GGGAAUGGAUCCACAUCUACGAAUUCGUCAGGAUGAAACAAUUUGGAGAAGCGUAGAUCGGAAGAGCACACGU | 17.5 ± 2.8 nM
target 2 MT 5'PFS UAA 3'PFS AGG (mixed) RNA 1: CACCCGUGCAAAAUUGCAGGGGUCUAAAACCUUCUCCAAAUUGUUUCAUCCU RNA 2: GGGAAUGGAUCCACAUCUACGAAUUCUAAAGGAUGAAACAAUUUGGAGAAGAGGAGAUCGGAAGAGCACACGU | 4.5 ± 0.6 nM
target 2 MT 5'PFS GUC 3'PFS CGA (mixed) RNA 1: CACCCGUGCAAAAUUGCAGGGGUCUAAAACCUUCUCCAAAUUGUUUCAUCCU RNA 2: GGGAAUGGAUCCACAUCUACGAAUUCGUCAGGAUGAAACAAUUUGGAGAAGCGAAGAUCGGAAGAGCACACGU | 8.7 ± 0.7 nM
target 2 MT 5'PFS CGA 3'PFS AAC (mixed) RNA 1: CACCCGUGCAAAAUUGCAGGGGUCUAAAACCUUCUCCAAAUUGUUUCAUCCU RNA 2: GGGAAUGGAUCCACAUCUACGAAUUCCGAAGGAUGAAACAAUUUGGAGAAGAACAGAUCGGAAGAGCACACGU | 7.5 ± 1.1 nM
target 2 MT 5'PFS CUG 3'PFS UCG (mixed) RNA 1: CACCCGUGCAAAAUUGCAGGGGUCUAAAACCUUCUCCAAAUUGUUUCAUCCU RNA 2: GGGAAUGGAUCCACAUCUACGAAUUCCUGAGGAUGAAACAAUUUGGAGAAGUCGAGAUCGGAAGAGCACACGU | 3.1 ± 0.4 nM
target 2 MT 5'PFS GUC 3'PFS CGC (mixed) RNA 1: CACCCGUGCAAAAUUGCAGGGGUCUAAAACCUUCUCCAAAUUGUUUCAUCCU RNA 2: GGGAAUGGAUCCACAUCUACGAAUUCGUCAGGAUGAAACAAUUUGGAGAAGCGCAGAUCGGAAGAGCACACGU | 16.9 ± 1.3 nM
target 2 MT 5'PFS GGU 3'PFS UGU (mixed) RNA 1: CACCCGUGCAAAAUUGCAGGGGUCUAAAACCUUCUCCAAAUUGUUUCAUCCU RNA 2: GGGAAUGGAUCCACAUCUACGAAUUCGGUAGGAUGAAACAAUUUGGAGAAGUGUAGAUCGGAAGAGCACACGU | 33 ± 4 nM
target 2 MT 5'PFS CUG 3'PFS UCU (mixed) RNA 1: CACCCGUGCAAAAUUGCAGGGGUCUAAAACCUUCUCCAAAUUGUUUCAUCCU RNA 2: GGGAAUGGAUCCACAUCUACGAAUUCCUGAGGAUGAAACAAUUUGGAGAAGUCUAGAUCGGAAGAGCACACGU | 6.3 ± 0.4 nM
target 2 MT 5'PFS CUG 3'PFS UCC (mixed) RNA 1: CACCCGUGCAAAAUUGCAGGGGUCUAAAACCUUCUCCAAAUUGUUUCAUCCU RNA 2: GGGAAUGGAUCCACAUCUACGAAUUCCUGAGGAUGAAACAAUUUGGAGAAGUCCAGAUCGGAAGAGCACACGU | 6.1 ± 0.5 nM
target 2 MT 5'PFS UAA 3'PFS AGA (mixed) RNA 1: CACCCGUGCAAAAUUGCAGGGGUCUAAAACCUUCUCCAAAUUGUUUCAUCCU RNA 2: GGGAAUGGAUCCACAUCUACGAAUUCUAAAGGAUGAAACAAUUUGGAGAAGAGAAGAUCGGAAGAGCACACGU | 3.4 ± 0.6 nM
target 2 MT 5'PFS UAC 3'PFS CGC (mixed) RNA 1: CACCCGUGCAAAAUUGCAGGGGUCUAAAACCUUCUCCAAAUUGUUUCAUCCU RNA 2: GGGAAUGGAUCCACAUCUACGAAUUCUACAGGAUGAAACAAUUUGGAGAAGCGCAGAUCGGAAGAGCACACGU | 5.5 ± 0.8 nM
target 2 MT 5'PFS GGU 3'PFS UGC (mixed) RNA 1: CACCCGUGCAAAAUUGCAGGGGUCUAAAACCUUCUCCAAAUUGUUUCAUCCU RNA 2: GGGAAUGGAUCCACAUCUACGAAUUCGGUAGGAUGAAACAAUUUGGAGAAGUGCAGAUCGGAAGAGCACACGU | 23 ± 4 nM
target 2 MT 5'PFS AAU 3'PFS ACU (mixed) RNA 1: CACCCGUGCAAAAUUGCAGGGGUCUAAAACCUUCUCCAAAUUGUUUCAUCCU RNA 2: GGGAAUGGAUCCACAUCUACGAAUUCAAUAGGAUGAAACAAUUUGGAGAAGACUAGAUCGGAAGAGCACACGU | 6.2 ± 0.7 nM
target 2 MT 5'PFS GUC 3'PFS AGU (mixed) RNA 1: CACCCGUGCAAAAUUGCAGGGGUCUAAAACCUUCUCCAAAUUGUUUCAUCCU RNA 2: GGGAAUGGAUCCACAUCUACGAAUUCGUCAGGAUGAAACAAUUUGGAGAAGAGUAGAUCGGAAGAGCACACGU | 16.5 ± 2.6 nM
target 2 MT 5'PFS AUA 3'PFS CAC (mixed) RNA 1: CACCCGUGCAAAAUUGCAGGGGUCUAAAACCUUCUCCAAAUUGUUUCAUCCU RNA 2: GGGAAUGGAUCCACAUCUACGAAUUCAUAAGGAUGAAACAAUUUGGAGAAGCACAGAUCGGAAGAGCACACGU | 5.4 ± 1.1 nM
target 2 MT 5'PFS AUA 3'PFS CAA (mixed) RNA 1: CACCCGUGCAAAAUUGCAGGGGUCUAAAACCUUCUCCAAAUUGUUUCAUCCU RNA 2: GGGAAUGGAUCCACAUCUACGAAUUCAUAAGGAUGAAACAAUUUGGAGAAGCAAAGAUCGGAAGAGCACACGU | 4.6 ± 1.3 nM
target 2 MT 5'PFS UAC 3'PFS CGG (mixed) RNA 1: CACCCGUGCAAAAUUGCAGGGGUCUAAAACCUUCUCCAAAUUGUUUCAUCCU RNA 2: GGGAAUGGAUCCACAUCUACGAAUUCUACAGGAUGAAACAAUUUGGAGAAGCGGAGAUCGGAAGAGCACACGU | 3.6 ± 0.5 nM
target 2 MT 5'PFS UAA 3'PFS AGC (mixed) RNA 1: CACCCGUGCAAAAUUGCAGGGGUCUAAAACCUUCUCCAAAUUGUUUCAUCCU RNA 2: GGGAAUGGAUCCACAUCUACGAAUUCUAAAGGAUGAAACAAUUUGGAGAAGAGCAGAUCGGAAGAGCACACGU | 3.2 ± 0.4 nM
